Paper doi:10.1101/2025.09.20.677498

Key:
[1] = target: HAdV-D10 fiber protein (human adenovirus type 10 (HAdV-D10)); experiment: cryo-EM structure
[2] = target: HAdV-D10 penton base (human adenovirus type 10 (HAdV-D10)); experiment: cryo-EM structure

Substance | stoichiometry N [1] | stoichiometry N [2]
HAdV-D10 fiber protein (natural protein) | 3 | –
HAdV-D10 penton base (natural protein) | – | 5
